The values that follow come from paper PMC5537682, “DNA-Interacting Characteristics of the Archaeal Rudiviral Protein SIRV2_Gp1”.

Data set [1] has as its target T1, SIRV2_Gp1 (Sulfolobus islandicus rod-shaped virus …, UniProt Q8UYE8 1-83).
T1 sequence: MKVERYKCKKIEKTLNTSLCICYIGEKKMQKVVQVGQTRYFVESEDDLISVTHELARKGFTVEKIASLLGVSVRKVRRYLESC
In words: EMSA; low affinity, >1 uM protein needed; smearing, unbound probe remains; 6-FAM EMSA: 50 mM Tris pH 7.5, 5 mM EDTA, 1 mM DTT, 100 ug/mL BSA, 100 nM probe, 20 min room temperature; 32P EMSA: 20 mM Tris pH 8.0, 0.4 mM EDTA, 1 mM MgCl2. The conditions noted are these: protein: recombinant; tags: C-terminal His-tag (pEXP5-CT/TOPO); label: 5'-6-FAM; single strand.

Data set [2] concerns the target T1, SIRV2_Gp1. In words: EMSA; >1 uM protein needed; 6-FAM EMSA: 50 mM Tris pH 7.5, 5 mM EDTA, 1 mM DTT, 100 ug/mL BSA, 100 nM probe, 20 min room temperature; 32P EMSA: 20 mM Tris pH 8.0, 0.4 mM EDTA, 1 mM MgCl2. To be noted: protein: recombinant, tags: C-terminal His-tag (pEXP5-CT/TOPO). In general terms: A gel shift assay detects complexes by their altered migration in electrophoresis.

Data set [3] concerns the target T1, SIRV2_Gp1. Put plainly: EMSA; >1 uM protein needed; higher affinity than single-stranded probes; 6-FAM EMSA: 50 mM Tris pH 7.5, 5 mM EDTA, 1 mM DTT, 100 ug/mL BSA, 100 nM probe, 20 min room temperature; 32P EMSA: 20 mM Tris pH 8.0, 0.4 mM EDTA, 1 mM MgCl2. The conditions noted are these: protein: recombinant; tags: C-terminal His-tag (pEXP5-CT/TOPO); blunt.

As for TGAGTTTTTTTCATTTTTTGCGTAAATTTC (ssDNA) [random 30-nt ssDNA (oligo 3)], the binding result with SIRV2_Gp1 [1] was “binds”.

B1: Holliday junction DNA (oligos 7-10) (structured_DNA)
DNA 1: GCGTTACAATGGAAACTATTCTTGGCAGTTGCATCCAACG
DNA 2: CGTTGGATGCAACTGCCAAGAATAGTGTCAGTTCCAGACG
DNA 3: CGTCTGGAACTGACACTATTCTTGGCGAATGGTCGTAAGC
DNA 4: GCTTACGACCATTCGCCAAGAATAGTTTCCATTGTAACGC
With B1, the binding result with SIRV2_Gp1 [2] (four-way junction of 4 strands) is recorded as “binds”.

B2: random 30-bp dsDNA (oligos 3-4) (dsDNA)
DNA 1: TGAGTTTTTTTCATTTTTTGCGTAAATTTC
DNA 2: GAAATTTACGCAAAAAATGAAAAAAACTCA
As for B2, in the data set with SIRV2_Gp1 [3], the binding result is “binds”.

B3: hairpin DNA (oligo 5) (structured_DNA)
DNA: TGAGTTTTTTTCATTTTTTGCGTAAATTTCGAAATTTACGCAAAAAATGAAAAAAACTCA
On to B3, for which the binding result with SIRV2_Gp1 [2] (label: 5'-6-FAM, hairpin) is recorded as “binds”.
